{"source": "paper PMC9482650", "about": "“Quantitative fragmentomics allow affinity mapping of interactomes” (Nature Communications, 2022)", "assay_in_all_cases": "holdup assay", "design_in_all_cases": "key: below the threshold = too weak to quantify, mostly under pKd 3.1 to 4", "key": {"[1]": {"target": "T1, ARHGEF11, O15085", "T1 sequence (O15085 42-136, limits assumed, looked up)": "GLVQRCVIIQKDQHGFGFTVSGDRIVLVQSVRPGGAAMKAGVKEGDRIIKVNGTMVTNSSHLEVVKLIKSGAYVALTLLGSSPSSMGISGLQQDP"}, "[2]": {"target": "T2, PARD3B_1, Q8TEW8", "T2 sequence (Q8TEW8 196-299, limits assumed, looked up)": "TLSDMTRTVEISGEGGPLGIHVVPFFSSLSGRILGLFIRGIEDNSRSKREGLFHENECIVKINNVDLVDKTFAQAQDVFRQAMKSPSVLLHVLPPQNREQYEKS"}, "[3]": {"target": "T3, DFNB31_3, Q9P202", "T3 sequence (Q9P202 811-907, limits assumed, looked up)": "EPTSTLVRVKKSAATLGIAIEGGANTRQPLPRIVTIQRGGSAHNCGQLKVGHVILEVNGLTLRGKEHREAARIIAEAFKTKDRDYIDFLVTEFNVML"}, "[4]": {"target": "IL16_3, Q14005", "sequence (Q14005 1107-1207)": "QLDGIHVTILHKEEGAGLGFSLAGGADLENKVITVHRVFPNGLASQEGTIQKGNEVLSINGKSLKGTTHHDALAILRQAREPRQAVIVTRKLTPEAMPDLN"}, "[5]": {"target": "T4, SIPA1L2, Q9P2F8", "T4 sequence (Q9P2F8 945-1036, limits assumed, looked up)": "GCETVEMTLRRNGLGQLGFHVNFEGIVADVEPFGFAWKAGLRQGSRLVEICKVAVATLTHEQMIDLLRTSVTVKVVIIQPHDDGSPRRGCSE"}, "[6]": {"target": "GRIP2_5, Q9C0E4", "sequence (Q9C0E4 544-642)": "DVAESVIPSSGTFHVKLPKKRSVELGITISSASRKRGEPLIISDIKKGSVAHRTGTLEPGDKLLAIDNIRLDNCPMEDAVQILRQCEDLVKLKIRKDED"}, "[7]": {"target": "T5, SNTB1, Q13884", "T5 sequence (Q13884 107-205, limits assumed, looked up)": "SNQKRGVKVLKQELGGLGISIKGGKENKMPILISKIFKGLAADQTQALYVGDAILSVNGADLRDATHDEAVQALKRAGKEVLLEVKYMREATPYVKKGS"}, "[8]": {"target": "MAST1, Q9Y2H9", "sequence (Q9Y2H9 962-1065)": "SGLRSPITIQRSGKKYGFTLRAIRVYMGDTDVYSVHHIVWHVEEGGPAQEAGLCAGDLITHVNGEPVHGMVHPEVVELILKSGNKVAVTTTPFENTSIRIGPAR"}, "[9]": {"target": "T6, GRIP1_7, Q9Y3R0", "T6 sequence (Q9Y3R0 999-1096, limits assumed, looked up)": "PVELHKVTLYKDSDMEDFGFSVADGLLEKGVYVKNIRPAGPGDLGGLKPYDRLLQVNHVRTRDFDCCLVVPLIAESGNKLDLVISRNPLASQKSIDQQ"}, "[10]": {"target": "LAP2, Q96RT1", "sequence (Q96RT1 other isoform, or with tags, fused parts or gaps)": "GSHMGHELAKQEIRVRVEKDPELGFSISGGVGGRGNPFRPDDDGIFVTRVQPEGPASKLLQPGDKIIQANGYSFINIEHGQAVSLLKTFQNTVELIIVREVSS"}, "[11]": {"target": "IL16_4, Q14005", "sequence (Q14005 1229-1329)": "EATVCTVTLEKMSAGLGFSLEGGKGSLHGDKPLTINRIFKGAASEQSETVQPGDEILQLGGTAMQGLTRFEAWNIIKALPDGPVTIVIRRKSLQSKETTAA"}, "[12]": {"target": "MAGI2_3, Q86UL8", "sequence (Q86UL8 600-682)": "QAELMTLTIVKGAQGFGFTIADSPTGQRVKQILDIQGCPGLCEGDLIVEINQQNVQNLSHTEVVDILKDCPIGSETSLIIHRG"}, "[13]": {"target": "FRMPD2_1, Q68DX3", "sequence (Q68DX3 770-861)": "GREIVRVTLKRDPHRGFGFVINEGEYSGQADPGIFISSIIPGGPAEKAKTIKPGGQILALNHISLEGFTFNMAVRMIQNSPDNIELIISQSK"}, "[14]": {"target": "MAGI2_6, Q86UL8", "sequence (Q86UL8 1141-1229)": "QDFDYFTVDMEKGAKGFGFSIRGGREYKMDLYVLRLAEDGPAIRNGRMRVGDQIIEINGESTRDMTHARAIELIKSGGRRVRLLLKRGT"}, "[15]": {"target": "Inadl_3, Q8NI35", "sequence (Q8NI35 359-469)": "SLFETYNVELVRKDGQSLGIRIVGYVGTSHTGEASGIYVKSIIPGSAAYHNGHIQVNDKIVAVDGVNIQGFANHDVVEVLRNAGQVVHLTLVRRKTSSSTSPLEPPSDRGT"}, "[16]": {"target": "T7, GRIP1_2, Q9Y3R0", "T7 sequence (Q9Y3R0 145-248, limits assumed, looked up)": "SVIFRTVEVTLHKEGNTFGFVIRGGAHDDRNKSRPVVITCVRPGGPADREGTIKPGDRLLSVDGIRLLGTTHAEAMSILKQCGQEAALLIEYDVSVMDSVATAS"}, "[17]": {"target": "T8, NHERF3_4, Q5T2W1", "T8 sequence (Q5T2W1 373-468, limits assumed, looked up)": "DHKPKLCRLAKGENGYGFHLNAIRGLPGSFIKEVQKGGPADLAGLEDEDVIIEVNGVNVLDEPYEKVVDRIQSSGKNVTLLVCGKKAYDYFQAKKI"}, "[18]": {"target": "T9, MPDZ_12, O75970", "T9 sequence (O75970 1857-1958, limits assumed, looked up)": "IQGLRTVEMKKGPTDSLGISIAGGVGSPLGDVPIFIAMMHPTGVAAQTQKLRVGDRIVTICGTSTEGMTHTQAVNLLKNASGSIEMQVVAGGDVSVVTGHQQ"}, "[19]": {"target": "LNX1_3, Q8TBB1", "sequence (Q8TBB1 500-596)": "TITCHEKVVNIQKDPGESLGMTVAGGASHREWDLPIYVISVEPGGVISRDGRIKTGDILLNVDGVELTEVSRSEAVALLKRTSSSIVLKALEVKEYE"}, "[20]": {"target": "T10, ARHGAP21, Q5T5U3", "T10 sequence (Q5T5U3 45-169, limits assumed, looked up)": "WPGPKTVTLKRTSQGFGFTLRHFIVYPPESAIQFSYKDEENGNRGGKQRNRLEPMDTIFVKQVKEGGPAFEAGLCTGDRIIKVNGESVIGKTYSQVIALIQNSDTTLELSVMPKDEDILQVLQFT"}, "[21]": {"target": "T11, LNX2_3, Q8N448", "T11 sequence (Q8N448 463-564, limits assumed, looked up)": "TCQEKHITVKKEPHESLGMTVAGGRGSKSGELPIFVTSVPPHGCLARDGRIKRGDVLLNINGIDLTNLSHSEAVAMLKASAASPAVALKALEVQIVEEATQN"}, "[22]": {"target": "T12, PCLO, Q9Y6V0", "T12 sequence (Q9Y6V0 4491-4600, limits assumed, looked up)": "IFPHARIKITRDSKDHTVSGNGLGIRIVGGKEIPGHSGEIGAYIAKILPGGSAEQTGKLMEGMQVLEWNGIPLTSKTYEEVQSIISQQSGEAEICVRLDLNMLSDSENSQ"}, "[23]": {"target": "T13, MPDZ_10, O75970", "T13 sequence (O75970 1624-1722, limits assumed, looked up)": "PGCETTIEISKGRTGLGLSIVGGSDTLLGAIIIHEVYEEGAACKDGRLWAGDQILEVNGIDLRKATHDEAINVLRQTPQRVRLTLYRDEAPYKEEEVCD"}, "[24]": {"target": "DLG4_2, P78352", "sequence (P78352 155-259)": "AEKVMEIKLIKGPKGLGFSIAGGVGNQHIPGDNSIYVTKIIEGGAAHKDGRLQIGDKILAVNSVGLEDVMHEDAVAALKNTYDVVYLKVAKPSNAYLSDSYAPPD"}, "[25]": {"settings": "plain residues with an end cap or a label only (N-terminal biotin on a linker: (peg)3)"}, "[26]": {"settings": "plain residues with an end cap or a label only (N-terminal biotin on a linker: ado-ado)"}}}
{"binder": "RYEDTTLVEDTVL", "note": "[WNV-NS5, Q9Q6P4]", "values": [{"measurement": "pKd", "setting": "[1]; [25]", "value": 3.99}, {"measurement": "pKd", "setting": "[2]; [25]", "value": 4.66}, {"measurement": "pKd", "setting": "[3]; [25]", "value": "below the threshold"}, {"measurement": "pKd", "setting": "[4]; [25]", "value": "below the threshold"}, {"measurement": "pKd", "setting": "[5]; [25]", "value": "below the threshold"}, {"measurement": "pKd", "setting": "[6]; [25]", "value": "below the threshold"}, {"measurement": "pKd", "setting": "[7]; [25]", "value": 4.27}, {"measurement": "pKd", "setting": "[8]; [25]", "value": 4.3}, {"measurement": "pKd", "setting": "[9]; [25]", "value": "below the threshold"}, {"measurement": "pKd", "setting": "[10]; [25]", "value": "below the threshold"}, {"measurement": "pKd", "setting": "[11]; [25]", "value": 3.56}, {"measurement": "pKd", "setting": "[12]; [25]", "value": "below the threshold"}, {"measurement": "pKd", "setting": "[13]; [25]", "value": "below the threshold"}, {"measurement": "pKd", "setting": "[14]; [25]", "value": 3.78}, {"measurement": "pKd", "setting": "[15]; [25]", "value": 3.82}, {"measurement": "pKd", "setting": "[16]; [25]", "value": "below the threshold"}, {"measurement": "pKd", "setting": "[17]; [25]", "value": 3.96}, {"measurement": "pKd", "setting": "[18]; [25]", "value": "below the threshold"}, {"measurement": "pKd", "setting": "[19]; [25]", "value": "below the threshold"}, {"measurement": "pKd", "setting": "[20]; [25]", "value": 5.01}, {"measurement": "pKd", "setting": "[21]; [25]", "value": "below the threshold"}, {"measurement": "pKd", "setting": "[22]; [25]", "value": "below the threshold"}, {"measurement": "pKd", "setting": "[23]; [25]", "value": "below the threshold"}, {"measurement": "pKd", "setting": "[24]; [25]", "value": 3.7}]}
{"binder": "TISFTQTSQF", "note": "[SLC1A1, P43005]", "values": [{"measurement": "pKd", "setting": "[1]; [26]", "value": 3.79}, {"measurement": "pKd", "setting": "[2]; [26]", "value": 4.24}, {"measurement": "pKd", "setting": "[3]; [26]", "value": 3.99}, {"measurement": "pKd", "setting": "[4]; [26]", "value": "below the threshold"}, {"measurement": "pKd", "setting": "[5]; [26]", "value": "below the threshold"}, {"measurement": "pKd", "setting": "[6]; [26]", "value": "below the threshold"}, {"measurement": "pKd", "setting": "[7]; [26]", "value": "below the threshold"}, {"measurement": "pKd", "setting": "[8]; [26]", "value": "below the threshold"}, {"measurement": "pKd", "setting": "[9]; [26]", "value": "below the threshold"}, {"measurement": "pKd", "setting": "[10]; [26]", "value": "below the threshold"}, {"measurement": "pKd", "setting": "[11]; [26]", "value": "below the threshold"}, {"measurement": "pKd", "setting": "[12]; [26]", "value": "below the threshold"}, {"measurement": "pKd", "setting": "[13]; [26]", "value": "below the threshold"}, {"measurement": "pKd", "setting": "[14]; [26]", "value": "below the threshold"}, {"measurement": "pKd", "setting": "[15]; [26]", "value": "below the threshold"}, {"measurement": "pKd", "setting": "[16]; [26]", "value": "below the threshold"}, {"measurement": "pKd", "setting": "[17]; [26]", "value": 4.41}, {"measurement": "pKd", "setting": "[18]; [26]", "value": "below the threshold"}, {"measurement": "pKd", "setting": "[19]; [26]", "value": "below the threshold"}, {"measurement": "pKd", "setting": "[20]; [26]", "value": "below the threshold"}, {"measurement": "pKd", "setting": "[21]; [26]", "value": "below the threshold"}, {"measurement": "pKd", "setting": "[22]; [26]", "value": "below the threshold"}, {"measurement": "pKd", "setting": "[23]; [26]", "value": "below the threshold"}, {"measurement": "pKd", "setting": "[24]; [26]", "value": "below the threshold"}]}
{"binder": "DPAESMESLV", "note": "[PTPRG, P23470]", "values": [{"measurement": "pKd", "setting": "[1]; [26]", "value": 3.61}, {"measurement": "pKd", "setting": "[2]; [26]", "value": "below the threshold"}, {"measurement": "pKd", "setting": "[3]; [26]", "value": 3.88}, {"measurement": "pKd", "setting": "[4]; [26]", "value": "below the threshold"}, {"measurement": "pKd", "setting": "[5]; [26]", "value": "below the threshold"}, {"measurement": "pKd", "setting": "[6]; [26]", "value": "below the threshold"}, {"measurement": "pKd", "setting": "[7]; [26]", "value": 4.84}, {"measurement": "pKd", "setting": "[8]; [26]", "value": 4.31}, {"measurement": "pKd", "setting": "[9]; [26]", "value": "below the threshold"}, {"measurement": "pKd", "setting": "[10]; [26]", "value": 3.96}, {"measurement": "pKd", "setting": "[11]; [26]", "value": "below the threshold"}, {"measurement": "pKd", "setting": "[12]; [26]", "value": 4.54}, {"measurement": "pKd", "setting": "[13]; [26]", "value": "below the threshold"}, {"measurement": "pKd", "setting": "[14]; [26]", "value": 4.16}, {"measurement": "pKd", "setting": "[15]; [26]", "value": 4.08}, {"measurement": "pKd", "setting": "[16]; [26]", "value": "below the threshold"}, {"measurement": "pKd", "setting": "[17]; [26]", "value": "below the threshold"}, {"measurement": "pKd", "setting": "[18]; [26]", "value": "below the threshold"}, {"measurement": "pKd", "setting": "[19]; [26]", "value": "below the threshold"}, {"measurement": "pKd", "setting": "[20]; [26]", "value": "below the threshold"}, {"measurement": "pKd", "setting": "[21]; [26]", "value": "below the threshold"}, {"measurement": "pKd", "setting": "[22]; [26]", "value": "below the threshold"}, {"measurement": "pKd", "setting": "[23]; [26]", "value": "below the threshold"}, {"measurement": "pKd", "setting": "[24]; [26]", "value": 5.01}]}
